This note sets out measurements from paper PMC6890793, “How water-mediated hydrogen bonds affect chlorophyll a/b selectivity in Water-Soluble Chlorophyll Protein” (Scientific Reports, 2019).

The data set concerns the molecule itself. As to the kind of experiment: crystal structure; Chl b-reconstituted WSCP crystallised by hanging-drop vapour diffusion (Lv-wt: 0.1 M Na/K phosphate pH 6.0, 3.0 M (NH4)2SO4, 4.7% sucrose; Bo-wt: 0.1 M (NH4)H2PO4 pH 4.5, 10% PEG 3350); data at 100 K; molecular replacement with the Chl a complexes.

B1: Water-Soluble Chlorophyll Protein (WSCP) from Brassica oleracea var. botrytis, wild type, reconstituted with Chl b (natural protein)
chain: REQVKDSNGNPVKRGAKYFIQPAKSNGGGLVPAAINILPFCPLGITQTLLPYQPGLPVSFGYEPVIVGTDYIYTSTTINIEFRSEIWPVCNELSKLWAVDVSSSAAKEPAIIIGGERTAPNSLFKIEEATGAHTYKLTTSSGTVGTIPGPWLGAPQLIATNDDAKTLFVKFVKVDDDAT
notes: Water-Soluble Chlorophyll Protein (WSCP), Brassica oleracea var. botrytis (cauliflower), wild type; also called Bo-wt; Chl b Bo-wt; source: E. coli, overexpressed, purified; apoprotein reconstituted with Chl b
Turning to B1, the binding result is given as “binds”.
